Consider one molecule from patent US20160137713A1 (HANALL BIOPHARMA, published 2016).

One may read the koff as a measure of how fast the partners let go of each other. The low end stands for a long-lived complex, the high end for a short-lived complex. Usually kon stands for a measure of how fast the partners come together. A high value points to fast association.

The target of experiment [1] is T1, mouse FcRn on 3T3-L1 cells (mouse, UniProt Q61559 22-365; P01887 21-119).
T1 construct: whole, on cells; also called NIH3T3L1
T1 sequence (looked up): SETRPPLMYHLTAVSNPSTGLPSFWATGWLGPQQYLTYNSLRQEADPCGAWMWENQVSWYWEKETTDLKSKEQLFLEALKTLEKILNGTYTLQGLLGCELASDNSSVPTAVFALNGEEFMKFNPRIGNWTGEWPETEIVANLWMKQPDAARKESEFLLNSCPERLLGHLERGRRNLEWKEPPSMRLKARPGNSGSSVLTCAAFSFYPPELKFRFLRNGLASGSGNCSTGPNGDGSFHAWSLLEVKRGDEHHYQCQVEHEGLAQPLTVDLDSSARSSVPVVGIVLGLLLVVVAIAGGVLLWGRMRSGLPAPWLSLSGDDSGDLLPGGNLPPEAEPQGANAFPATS
T1 sequence (b2m, looked up): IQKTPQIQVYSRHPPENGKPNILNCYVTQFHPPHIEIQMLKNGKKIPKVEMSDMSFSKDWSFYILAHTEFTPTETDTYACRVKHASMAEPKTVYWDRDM
Kind of experiment: FACS on mouse FcRn-expressing 3T3-L1 cells at pH 6.0 and pH 7.4, FITC anti-human IgG goat antibody; MFI relative to hIgG. The method, then: 3T3-L1 cells stably expressing mouse FcRn were cultured in 10% FCS DMEM medium, and then detached from the culture plate by trypsin treatment. The cells were washed three times with cold binding buffer (PBS, pH 6.0 10 mM EDTA), and then diluted in binding buffer at a concentration of 10⁵ cells/ml. 100 μl of the cell dilution was dispensed into each 1.5-ml tube in such a manner that each tube contained 10⁴ cells, and 1 μl of HL161 antibody (1 mg/ml) was added to the dispensed cells. Next, the cells were incubated on ice. As control antibodies, 1 μl of each of rabbit antibody (Santacruz, sc-66893) and human IgG (Abcam, cat#. 409120), which bind to mouse FcRn, was used. The cells were recovered by centrifugation at 4° C. and 4000 rpm for 5 minutes, after which the cells were washed once with binding buffer and resuspended in 100 μl of binding buffer. As FITC-conjugated secondary antibody, 1 μl of anti-human IgG goat antibody (Invitrogen, Cat*. A11013) was added to the cells. In the case of the experiment using anti-mouse FcRn rabbit antibody, the anti-rabbit antibody was incubated with the cells on ice for 1 hour, and then the cells were recovered by centrifugation at 4° C. and 700 g for 5 minutes, washed once with binding buffer, resuspended in 400 ul of binding buffer and analyzed by FACS to examine the cross-reactivity of the HL161 antibodies with mouse FcRn (see FIG. 4). An experiment at a pH of 7.4 was performed using binding buffer at a pH of 7.4 in the same manner as the experiment using binding buffer at a pH of 6.0. The degree of the binding of each antibody to mouse FcRn was presented as relative MFI based on human IgG.

Experiment [2] addresses T2, human FcRn on HEK293 cells (human, UniProt P55899 24-365; P61769 21-119).
T2 construct: whole, on cells; also called hFcRn
Kind of experiment: FACS on hFcRn-overexpressing HEK293 cells at pH 7.4, Alexa488 anti-human goat antibody; MFI relative to hIgG1. The method, then:
In stable HEK293 cells expressing human FcRn, the degrees of binding of antibody to FcRn at various pHs were analyzed using a FACS system. Specifically, 100,000 stable HEK293 cells were washed with PBS and centrifuged in a table top microcentrifuge at 4500 rpm for 5 minutes to obtain pellets. 1 μg of antibody was added to 100 μl of pH 6.0 or pH 7.4PBS/10 mM EDTA. The cell pellets were resuspended in 100 μl of the antibody solution and incubated on ice for 60 minutes. The cells were washed once with 150 μl of buffer having pH difference, and then pellets were obtained therefrom. Alexa488-labeled anti-human antibody goat antibody (1 mg/ml) was diluted at 1:20 in buffer having pH difference, and the pellets were resuspended in 100 μl of the buffer, and then cultured on ice for 60 minutes. The cells were washed once with 150 μl of buffer having pH difference, and pellets were obtained therefrom and resuspended in buffer having pH difference. The suspension was transferred into a tube for FACS analysis. These cells were analyzed by FACS using BD FACSDiva™ v6.1.3 software (BD Bioscience). The results of the analysis were expressed as Mean Fluorescence Intensity (MFI) (see FIG. 2).

The target of another experiment is T3, soluble human FcRn (human, UniProt P55899 24-297; P61769 21-119).
T3 construct: extracellular domain;mature; Non-covalent heterodimer secreted by 293 cells, purified on IgG Sepharose; also called shFcRn; soluble FcRn
T3 sequence (P55899 24-297, chain 1 of 2): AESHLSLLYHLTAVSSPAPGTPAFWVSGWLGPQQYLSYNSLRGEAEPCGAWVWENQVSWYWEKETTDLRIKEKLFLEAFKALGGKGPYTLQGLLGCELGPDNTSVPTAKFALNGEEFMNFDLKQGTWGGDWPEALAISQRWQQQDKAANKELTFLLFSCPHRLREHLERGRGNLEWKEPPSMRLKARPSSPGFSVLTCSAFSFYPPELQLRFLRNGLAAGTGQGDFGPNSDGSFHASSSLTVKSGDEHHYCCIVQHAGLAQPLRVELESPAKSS
T3 sequence (P61769 21-119, chain 2 of 2): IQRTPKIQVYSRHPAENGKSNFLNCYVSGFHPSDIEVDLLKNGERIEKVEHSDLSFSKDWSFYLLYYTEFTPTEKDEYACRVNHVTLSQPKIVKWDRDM
Kind of experiment: SPR, shFcRn immobilised, pH 7.4. The protocol:
Measurement of the binding ability of antibody by SPR was performed by immobilizing shFcRn as a ligand onto a Proteon GLC chip (Bio-Rad) and measuring affinity.
The analysis of ligand and analyte was performed using a Proteon GLC chip, and the interaction was analyzed at a pH of 6.0 and a pH of 7.4. Immobilization of the ligand was activated by injecting a 1:1 mixture of 1×EDAC (EDC) and 1× Surfo-NHS for 5 minutes. shFcRn was diluted in 10 mM sodium acetate (pH 4.5) at a concentration of 25 μg/ml and added to the ligand at a flow rate of 30 μl/min for 5 minutes. […] The analyte antibody was allowed to flow on the immobilized chip at a flow rate of 30 μl/min. […] The association time of the analyte antibody was 240 seconds, and the dissociation time was 600 seconds. Regeneration of the chip was performed by injecting 10 mM glycine (pH 2.5) at a flow rate of 100 μl/min for 18 seconds. Based on sensorgrams resulting from six concentrations of the analyte, kinetics analysis was performed using Proteon XPR36 software.
Background: In SPR one partner is held on a chip, and binding of the other changes the refractive index at the surface.

T2 sequence (P55899 24-365, chain 1 of 2): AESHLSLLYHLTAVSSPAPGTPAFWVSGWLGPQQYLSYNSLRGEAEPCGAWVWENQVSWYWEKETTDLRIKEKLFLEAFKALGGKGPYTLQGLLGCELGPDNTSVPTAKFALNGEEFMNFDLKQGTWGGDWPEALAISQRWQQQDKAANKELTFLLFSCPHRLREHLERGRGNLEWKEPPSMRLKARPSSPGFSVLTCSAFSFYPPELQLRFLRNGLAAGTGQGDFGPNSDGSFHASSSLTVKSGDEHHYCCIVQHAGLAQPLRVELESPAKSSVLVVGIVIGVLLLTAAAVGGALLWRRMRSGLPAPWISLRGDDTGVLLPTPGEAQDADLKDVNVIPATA
T2 sequence (P61769 21-119, chain 2 of 2): as the sequence (P61769 21-119, chain 2 of 2) above

B1: HL161-11H (antibody, V domains shown)
VH: QMQLVESGGGLVQPGRSLRLSCAASGFTFSSYAMHWVRQAPGKGLEWVAVISYDGSNKYYADSVKGRFTISRDNSKNTLYLQMNSLRSEDTAVYYCSRGSGGRDAFDVWGQGTMITVSS
VL: DIQMTQSPSTLSASVGDRVTITCRASQSISSRLAWYQQKPGKAPKLLIYKASSLETGVPSRFSGSGSGTEFTLTISSLQPDDFATYYCQQTNSFPLTFGGGTKVEIK
notes: Whole human IgG from pNATAB vectors
B1: the binding result in experiment [1] is on record as “no binding”. For the same molecule, the “Relative MFI (Fold)” value in experiment [2] worked out at 10.6 fold. Further, in the experiment with soluble human FcRn, the dissociation rate constant (koff) amounted to 0.00045 s⁻¹ and the association rate constant (kon) worked out at 500000 M⁻¹ s⁻¹.
